The values below come from patent US20040057952A1 (IMMUNOGEN, published 2004).

In this test the target is T1, Muc16 on tumor cells (human, UniProt Q8WXI7 1-14507).
T1 construct: whole, on cells; Endogenous protein; also called CA125
The test is described as follows: flow cytometry on WISH cells. (In flow cytometry, cells or beads pass a laser one at a time.)

B1: OC125 (antibody)
chain 1: QVQLQESGPELVKPGASVKISCKASGYTFTDYNMHWVKQSHGKSLEWIGYIYPYNGDTGYNQKFRNKASLTVDTSSSTAYMELRSLTSEDSAVYYWARSGGFWYFDVWGQGGTTVTVSS
chain 2: DIQMTQSPAILSASPGEKVTMTCRATPSVSYMHWYQQKPGSSPKPLIYTTSNLASGVPARFSGGGSGTSYSLTVSRVEVEDAATYYCQQWSRSPPTFGAGTKLEIK
For B1, the “fold fluorescence shift at saturation binding against MJ-171” value is over 5 fold.
